Data taken from patent US20240327489A1.

Experiments:
[1] = target: putative Btnl2 receptor on activated CD4+ T cells; assay: cell-based or functional assay
[2] = target: putative Btnl2 receptor on activated CD4+ T cells; assay: flow cytometry, Fc-fusion staining of activated mouse CD4+ T cells at 72 hours

mouse Btnl2-Fc (from UniProt O70355 24-454) (Fc fusion)
cytokine production of activated CD4+ T cells after 72 hours of culture [1]: > 40% | decrease in binding with CD28 co-stimulation (α-CD3/α-CD28 against α-CD3 alone) [2]: 50%
